Molecular target: RUNX1 Runt domain (UniProt Q01196 50-178)
Test: ITC

Chain of RUNX1 Runt domain (Q01196 50-178): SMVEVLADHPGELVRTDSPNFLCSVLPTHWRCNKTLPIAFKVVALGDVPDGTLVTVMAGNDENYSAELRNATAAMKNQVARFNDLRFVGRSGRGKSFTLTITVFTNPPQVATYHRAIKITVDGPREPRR

B1: CBFβ-SMMHC_(d134-236) (type I CBFβ-SMMHC fusion protein) (other)
chain: MPRVVPDQRSKFENEEFFRKLSRECEIKYTGFRDRPHEERQARFQNACRDGRSEIAFVATGTNLSLQFFPASWQGEQRQTPSREYVDLEREAGKVYLKAPMILNGVCVIWKGWIDLQRLDGMGCLEFDEERAQLHEYETELEDERKQRALAAAAKKKLEGDLKDLELQADSAIKGREEAIKQLRKLQAQMKDFQRELEDARASRDEIFATAKENEKKAKSLEADLMQLQEDLAAAERARKQADLEKEELAEELASSLSGRNALQDEKRRLEARIAQLEEELEEEQGNMEAMSDRVRKATQQAEQLSNELATERSTAQKNESARQQLERQNKELRSKLHEMEGAVKSKFKSTIAALEAKIAQLEEQVEQEAREKQAATKSLKQKDKKLKEILLQVEDERKMAEQYKEQAEKGNARVKQLKRQLEEAEEESQRINANRRKLQRELDEATESNEAMGREVNALKSKLRRGNETSFVPSRRSGGRRVIENADGSEEETDTRDADFNGTKASE
  Kd: ~709 nM
  stoichiometry N: 1.17

From paper PMC2874204 (Cancer cell, 2010)
